According to article PMC5267525, “Sec3 promotes the initial binary t-SNARE complex assembly and membrane fusion” (Nature Communications, 2017):

B1: His6-Sso2 (cytosolic domain, a.a. 1–270) [yeast] / GST-tagged Sec9 C-terminal SNARE domain (a.a. 414–651) [yeast] (parent)
chain 1: MSNANPYENNNPYAENYEMQEDLNNAPTGHSDGSDDFVAFMNKINSINANLSRYENIINQIDAQHKDLLTQVSEEQEMELRRSLDDYISQATDLQYQLKADIKDAQRDGLHDSNKQAQAENCRQKFLKLIQDYRIIDSNYKEESKEQAKRQYTIIQPEATDEEVEAAINDVNGQQIFSQALLNANRRGEAKTALAEVQARHQELLKLEKTMAELTQLFNDMEELVIEQQENVDVIDKNVEDAQQDVEQGVGHTNKAVKSARKARKNKIRC
chain 2: EEARQQQEEDEAVDEIKQEIKFTKQSSVASTRNTLKMAQDAERAGMNTLGMLGHQSEQLNNVEGNLDLMKVQNKVADEKVAELKKLNRSILAVHVSNPFNSKRRRREREEQLKNRKIEEKLMREQTSQQLSQSTQRIEGAMNANNNISEVRERYQRKNVLEKAKRYQFENDEEDDEMELEIDRNLDQIQQVSNRLKKMALTTGKELDSQQKRLNNIEESTDDLDINLHMNTNRLAGIR

Variants of: B1
Assay: GST pull-down time course (SDS-PAGE, Coomassie blue staining, band quantification)
Conditions: with GST-tagged Sec9 C-terminal SNARE domain (a.a. 414–651) [yeast]; time point 5 min; parent: 0; read off a plot

Variant | response [%]
chain 1 D170G V171S N172S Q174G | 34

Same assay, conditions: with GST-tagged Sec9 C-terminal SNARE domain (a.a. 414–651) [yeast]; time point 10 min; parent: 9; read off a plot

Variant | response [%]
chain 1 D170G V171S N172S Q174G | 67

Same assay, conditions: with GST-tagged Sec9 C-terminal SNARE domain (a.a. 414–651) [yeast]; time point 20 min; parent: 32; read off a plot

Variant | response [%]
chain 1 D170G V171S N172S Q174G | 79

Same assay, conditions: with GST-tagged Sec9 C-terminal SNARE domain (a.a. 414–651) [yeast]; time point 40 min; parent: 29; read off a plot

Variant | response [%]
chain 1 D170G V171S N172S Q174G | 100

Same assay, conditions: with GST-tagged Sec9 C-terminal SNARE domain (a.a. 414–651) [yeast]; time point 70 min; parent: 48; read off a plot

Variant | response [%]
chain 1 D170G V171S N172S Q174G | 92

Same assay, conditions: with GST-tagged Sec9 C-terminal SNARE domain (a.a. 414–651) [yeast]; time point 110 min; parent: 72; read off a plot

Variant | response [%]
chain 1 D170G V171S N172S Q174G | 96

Same assay, conditions: with GST-tagged Sec9 C-terminal SNARE domain (a.a. 414–651) [yeast]; time point 170 min; read off a plot

Variant | response [%]
chain 1 D170G V171S N172S Q174G | 96

Same assay, conditions: with GST-tagged Sec9 C-terminal SNARE domain (a.a. 414–651) [yeast]; time point 240 min; parent: 100; read off a plot

Variant | response [%]
chain 1 D170G V171S N172S Q174G | 100
